Target: recombinant mouse α-synuclein amyloid fibrils (mouse) (UniProt O55042)
Experiment: SPR

Question: With “recombinant full-length mouse PrP MoPrP(23-231) (from UniProt P04925 23-231) (natural protein)” as the substance, how does the KD, first of two (ratio of one of two koff values to kon) read?
Answer: 3.1 nM

Question: What about the KD, second of two (ratio of one of two koff values to kon) of the same substance?
Answer: 36.5 nM

— publication PMC5577263
